Laboratory results published in patent US20230357838, “Double-Stranded DNA Deaminases and Uses Thereof” (New England Biolabs, Inc., published 2023).

T1: d38_MGYPDa829 (unidentified)
T1 chain: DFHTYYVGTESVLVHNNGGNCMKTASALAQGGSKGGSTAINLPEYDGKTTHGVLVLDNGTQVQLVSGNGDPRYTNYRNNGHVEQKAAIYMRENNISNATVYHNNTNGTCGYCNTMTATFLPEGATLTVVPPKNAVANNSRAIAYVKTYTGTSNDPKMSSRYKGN

T2: LbsDa01 (Simiaoa sunii)
T2 chain: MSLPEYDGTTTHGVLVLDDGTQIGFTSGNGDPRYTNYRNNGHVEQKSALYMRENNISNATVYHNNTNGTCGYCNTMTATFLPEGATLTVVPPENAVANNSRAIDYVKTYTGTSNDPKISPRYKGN

T3: MGYPDa23 (unidentified)
T3 chain: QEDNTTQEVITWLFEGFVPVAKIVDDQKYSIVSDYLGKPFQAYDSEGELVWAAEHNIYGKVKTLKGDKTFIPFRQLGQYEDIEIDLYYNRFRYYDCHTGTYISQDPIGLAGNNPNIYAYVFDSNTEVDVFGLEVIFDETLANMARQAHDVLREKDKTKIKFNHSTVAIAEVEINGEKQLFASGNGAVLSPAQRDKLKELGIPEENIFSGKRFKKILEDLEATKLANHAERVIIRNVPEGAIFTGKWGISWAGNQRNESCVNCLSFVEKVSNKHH

T4: RaDa01 (Ruminococcus sp.)
T4 chain: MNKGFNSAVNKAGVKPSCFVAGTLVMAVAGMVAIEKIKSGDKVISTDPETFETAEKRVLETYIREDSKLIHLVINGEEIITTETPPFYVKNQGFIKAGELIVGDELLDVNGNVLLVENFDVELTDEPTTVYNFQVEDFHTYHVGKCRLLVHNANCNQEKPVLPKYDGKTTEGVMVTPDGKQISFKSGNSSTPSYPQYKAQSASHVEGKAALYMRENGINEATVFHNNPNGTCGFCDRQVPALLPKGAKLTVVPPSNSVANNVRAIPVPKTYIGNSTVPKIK

T5: CrDa01 (Clostridium roseum)
T5 chain: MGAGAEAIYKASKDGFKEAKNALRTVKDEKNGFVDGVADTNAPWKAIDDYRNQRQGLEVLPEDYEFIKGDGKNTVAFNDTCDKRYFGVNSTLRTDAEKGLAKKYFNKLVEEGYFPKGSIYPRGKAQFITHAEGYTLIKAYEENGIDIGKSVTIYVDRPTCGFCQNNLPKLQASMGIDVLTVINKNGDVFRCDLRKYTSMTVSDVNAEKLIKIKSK

T6: AvDa02 (Actinomyces viscosus)
T6 chain: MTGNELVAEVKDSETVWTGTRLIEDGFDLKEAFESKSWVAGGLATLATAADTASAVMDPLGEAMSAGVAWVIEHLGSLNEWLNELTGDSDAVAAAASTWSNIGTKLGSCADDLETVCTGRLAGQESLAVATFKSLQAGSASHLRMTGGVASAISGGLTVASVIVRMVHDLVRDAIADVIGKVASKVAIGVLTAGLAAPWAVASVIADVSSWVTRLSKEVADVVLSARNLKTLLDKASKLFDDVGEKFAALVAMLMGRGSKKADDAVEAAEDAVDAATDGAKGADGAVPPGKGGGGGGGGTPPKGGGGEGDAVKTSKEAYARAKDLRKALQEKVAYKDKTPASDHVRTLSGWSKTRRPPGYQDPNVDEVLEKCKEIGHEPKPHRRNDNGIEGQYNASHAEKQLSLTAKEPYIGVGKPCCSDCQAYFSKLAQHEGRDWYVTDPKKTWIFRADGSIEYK

T7: MGYPDa20 (unidentified)
T7 chain: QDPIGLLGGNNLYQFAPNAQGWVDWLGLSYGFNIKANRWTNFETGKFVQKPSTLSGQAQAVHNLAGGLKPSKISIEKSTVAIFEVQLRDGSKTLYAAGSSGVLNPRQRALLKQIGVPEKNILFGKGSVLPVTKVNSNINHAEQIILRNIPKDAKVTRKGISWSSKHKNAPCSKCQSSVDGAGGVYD

B1: 40 bp 5caC oligo (dsDNA)
DNA 1: AAATTTAATTATAAAACGATCGACGACGAAATAATAAAAA
DNA 2: TTTTTATTATTTCGTCGTCGATCGTTTTATAATTAAATTT
modifications: 5caC at all four C of the listed strand sites
B2: 40 bp 5fC oligo (dsDNA)
DNA 1: B1 DNA 1
DNA 2: B1 DNA 2
modifications: 5fC at all four C of the listed strand sites
B3: 40 bp control C oligo (dsDNA)
DNA 1: B1 DNA 1
DNA 2: B1 DNA 2

How the values were obtained:
Test in all cases: cell-based or functional assay
d38_MGYPDa829 = target: T1, d38_MGYPDa829
LbsDa01 = target: T2, LbsDa01
MGYPDa23 = target: T3, MGYPDa23
RaDa01 = target: T4, RaDa01
CrDa01 = target: T5, CrDa01
AvDa02 = target: T6, AvDa02
MGYPDa20 = target: T7, MGYPDa20
MGYPDa01 = MGYPDa01 (unidentified)
Chain of MGYPDa01 (unidentified) (chain, as listed by the source): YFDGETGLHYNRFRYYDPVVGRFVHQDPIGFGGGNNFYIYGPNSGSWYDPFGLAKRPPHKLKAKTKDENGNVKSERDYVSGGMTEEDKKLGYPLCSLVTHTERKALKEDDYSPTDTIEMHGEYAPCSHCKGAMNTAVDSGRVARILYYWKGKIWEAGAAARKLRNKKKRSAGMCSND

Row | Binder | activity (d38_MGYPDa829) [fraction deaminated] | activity (LbsDa01) [fraction deaminated] | activity (MGYPDa23) [fraction deaminated] | activity (RaDa01) [fraction deaminated] | activity (CrDa01) [fraction deaminated] | activity (AvDa02) [fraction deaminated] | activity (MGYPDa20) [fraction deaminated] | activity (MGYPDa01) [fraction deaminated]
1 | B1 | 0.1 | 0.1 | 0.02 | 0.47 |  |  |  | 
2 | B2 | 0.12 | 0.14 | 0.23 | 0.66 | 0.09 | 0.08 |  | 
3 | B3 | 0.88 | 0.92 | 0.97 | 0.98 | 0.98 |  | 0.59 | 0.12
